This note sets out measurements from US5200335A (Forschungszentrum Juelich GmbH, priority 1990, dated 1993).

Substrate in data set [1]: C[C@@H](O)c1ccccc1
In words: cells, lysate or membranes named. Conditions: other: NADP+-dependent oxidations; 30.0 °C.

Substrate in data set [2]: NC(=O)c1ccc[n+]([C@@H]2O[C@H](COP(=O)(O)OP(=O)(O)OC[C@H]3O[C@@H](n4cnc5c(N)ncnc54)[C@H](OP(=O)(O)O)[C@@H]3O)[C@@H](O)[C@H]2O)c1
Nature of the data set: cells, lysate or membranes named. Conditions: other: NADP+-dependent oxidations; 30.0 °C.

Substrate in data set [3]: CC(C)O
In words: cells, lysate or membranes named. To be noted: other: NADP+-dependent oxidations; 30.0 °C.

Substrate in data set [4]: CC(O)c1ccccc1
Nature of the data set: cells, lysate or membranes named. To be noted: other: NADP+-dependent oxidations; 30.0 °C.

Substrate in data set [5]: CC(=O)c1ccc(Cl)cc1
Nature of the data set: purified protein, by the assay type. To be noted: pH 7.0; 30.0 °C.

Substrate in data set [6]: CC(C)=O
Nature of the data set: purified protein, by the assay type. Conditions: other: NADPH-dependent reductions, pH 7.0, 0.2 mM NADPH, partially purified enzyme, 30.0 °C.

Substrate in data set [7]: NC(=O)C1=CN([C@@H]2O[C@H](COP(=O)(O)OP(=O)(O)OC[C@H]3O[C@@H](n4cnc5c(N)ncnc54)[C@H](OP(=O)(O)O)[C@@H]3O)[C@@H](O)[C@H]2O)C=CC1
In words: purified protein, by the assay type. Conditions: other: NADPH 13 to 380 μM, 5.3 mM acetophenone, pH 7.0, 30° C.

Substrate in data set [8]: CC(=O)c1ccccc1
In words: purified protein, by the assay type. To be noted: other: acetophenone 50-7100 μM, 0.2 mM NADPH, pH 7.0, 30° C.

Substrate in data set [9]: CC(=O)CCc1ccccc1
Nature of the data set: purified protein, by the assay type. To be noted: other: NADPH-dependent reductions, pH 7.0, 0.2 mM NADPH, partially purified enzyme, 30.0 °C.

Substrate in data set [10]: CCCCCC(=O)CC
In words: purified protein, by the assay type. Conditions: other: NADPH-dependent reductions, pH 7.0, 0.2 mM NADPH, partially purified enzyme, 30.0 °C.

Substrate in data set [11]: CC(=O)C(C)(C)C
Nature of the data set: purified protein, by the assay type. Conditions: pH 7.0; 30.0 °C.

Substrate in data set [12]: CCCCCCC(C)=O
In words: purified protein, by the assay type. Conditions: other: NADPH-dependent reductions, pH 7.0, 0.2 mM NADPH, partially purified enzyme, 30.0 °C.

Substrate in data set [13]: CCC(=O)c1ccccc1
Nature of the data set: purified protein, by the assay type. To be noted: pH 7.0; 30.0 °C.

Substrate in data set [14]: CC(=O)c1ccc(Br)cc1
In words: purified protein, by the assay type. Conditions: other: NADPH-dependent reductions, pH 7.0, 0.2 mM NADPH, partially purified enzyme, 30.0 °C.

B1: phenylethanol dehydrogenase (Lentilactobacillus kefiri) (protein)
chain: TDRLKGKVAIVTGGTLGIGLAIADKFVEEGAKVVITGRHADVGEKAAKSIGGTDVIRFVQHDASDEAGWTKLFDTTEEAFGPVTTVVNNAGIAVSKSVEDTTTEEWRKLLSVNLDGVFFGTRLGIQRMKNKGLGASIINMSSIEGFVGDPTLGAYNASKGAVRIMSKSAALDCALKDYDVRVNTVHPGYIKTPLVDDLEGAEEMMSQRTKTPMGHIGEPNDIAWICVYLASDESKFATGAEFVVDGGYTAQ
For orientation: Km means the concentration of substrate that gives half-maximal velocity. Regarding B1, the Km in [1] turned out to be 3500 µM; in [2], 190 µM; in data set [3], 117 µM; in data set [4], 4300 µM; in data set [5], 390 µM; in [6], 37900 µM. For the same protein, the Km in [7] turned out to be 140 µM; in data set [8] it was 600 µM; in data set [9], 9400 µM; in [10], 681 µM; in data set [11], 3380 µM; in [12], 251 µM. Besides, the Km in data set [13] is 2740 µM; in data set [14], 372 µM.
